Data taken from patent US7485710B2, “Nucleic acids coding for adhesion factor of group B streptococcus, adhesion factors of group B streptococcus and further uses thereof” (priority 2002, dated 2009).
The star is where a group is joined. Biotin = O=C1N[C@H]2[C@H](CS[C@H]2CCCCC(=O)*)N1; Ahx = NCCCCCC(=O)O

Assays:
[1] = test system: IgG and IgA antibodies in sera from patients infected with GBS; assay: Peptide ELISA of FbsA peptides with human sera; format: binding; settings: five sera, dilutions 1:200 and 1:1,000
Source text: The 5 biotinylated peptides (wild type <1>: GNVLERRQRDAENRSQ SEQ ID No. 113; alanine mutant peptides: <2> GAVLERRQRDAENRSQ SEQ ID No. 207, <3> GNALERRQRDAENRSQ SEQ ID No. 208, <4> GNVLEARQRDAENRSQ SEQ ID No. 211, <5> GNVLERAQRDAENRSQ SEQ ID No. 212; see also FIG. 11) were coated on Streptavidin-coated ELISA plates and analysed using 5 sera from patients infected with GBS. The patient sera were applied in a dilution of 1:200 and 1:1,000. IgG (A) and IgA (B) antibodies were detected with secondary anti-human antibodies coupled to Horse Radish Peroxidase and ABTS as substrate.
Biotin-labeled peptides were coating on Streptavidin ELISA plates (EXICON) at 10 μg/ml concentration according to the manufacturer's instructions. Sera were tested at two dilutions, 200× and 1,000×.
Highly specific Horse Radish Peroxidase (HRP)-conjugated anti-human IgG or anti-human IgA secondary antibodies (Southern Biotech) were used according to the manufacturers' recommendations (dilution: 1,000×). Antigen-antibody complexes were quantified by measuring the conversion of the substrate (ABTS) to colored product based on OD405nm readings in an automated ELISA reader (TECAN SUNRISE). Following manual coating, peptide plates were processed and analyzed by the Gemini 160 ELISA robot (TECAN) with a built-in reader (GENIOS, TECAN).

[2] = test system: A549 cells; assay: Epithelial cell adherence and internalization assay of GBS 6313 in presence of proteins; format: cell-based, human; settings: pre-treatment of A549 cells with increasing amounts of protein
Description: The adherence of GBS 6313 to A549 cells (A) and its internalization into these cells (B) was arbitrarily set to 100% and the results obtained in the presence of the different fusion proteins was related to these values. Each experiment was performed at least three times in triplicate.
Adherence of GBS to epithelial cells and internalization into epithelial cells was assayed essentially as described previously (Caparon et al., 1991; Rubens et al. 1992). Briefly, A549 cells were transferred to 24-well tissue culture plates at approximately 4×10^5 cells per well and cultivated overnight in RPMI (Gibco BRL) tissue culture medium, supplemented with 10% of fetal calf serum. After replacement of the medium with 1 ml of fresh medium, the cells were infected with 5×10^6 streptococci per well and incubated at 37° C. for 2 h. The non-adherent bacteria were removed by washing three times with PBS. In adherence assays, the epithelial cells were subsequently detached from the well by the addition of trypsin/EDTA and lysed by adding 300 μl of distilled water. Adherent bacteria were quantitated by plating serial dilutions of the lysate onto THY agar plates. For internalization assays the epithelial cells were incubated after 2 h of infection for another 2 h in tissue culture medium supplemented with penicilling G (10 U) and streptomycin (0.01 mg) to kill extracellular bacteria. After three washes with PBS, the epithelial cells were detached by the addition of trypsin/EDTA and lysed in 300 μl of distilled water. The amount of intracellular bacteria was quantified by plating serial dilutions of the lysate onto THY agar plates. Each experiment was repeated at least three times in triplicate. […]
Adherence of S. agalactiae to A549 and HEL299 cells and internalization into these cells was assayed essentially as described in Example 1 for A549 cells. In some experiments, A549 cells were preincubated with different amounts of FbsA protein or FbsA-derived peptides in RPMI medium for 30 min with three subsequent washes with PBS.

[3] = biological target: T1, human fibrinogen (Homo sapiens, UniProt P02671+P02675+P02679); assay: Western blot of fusion proteins for fibrinogen binding; settings: His-tagged fusion proteins separated by SDS-PAGE, blotted, probed with human fibrinogen
T1 construct: purchased Sigma-Aldrich
Source text: The fibrinogen binding activity of the three proteins encoded by different constructs are indicated below the schematic FbsA drawing.
The fusion proteins were size-separated by SDS-PAGE, transferred onto a nitrocellulose membrane and tested for fibrinogen binding by Western blotting. Bound fibrinogen was detected with rabbit anti-fibrinogen antibodies, followed by peroxidase-labelled goat anti-rabbit antibodies, and visualized by chemiluminescence. PabC and Gbs0851: full-length fusion proteins; PabC-N: N-terminal 388 amino acids of PabC; PabC-C: C-terminal 222 amino acids of PabC. (C) Identification of the FbsA and PabC-binding sites within human fibrinogen by Western blot analysis. […] Bound fusion proteins were detected with mouse anti-HisTag antibodies, followed by peroxidase-conjugated goat anti-mouse IgG fab fragments and visualized by chemiluminescence. […]
Membranes that had been blocked overnight were incubated for 1 h with 2 μg/ml of human fibrinogen. […] After three washes with PBST and two washes with PBS, bound fibrinogen was detected by chemiluminescence using the ECL-kit (Amersham/Pharmacia). In control experiments, no cross-reactivity of the used antibodies with the immobilized proteins and peptides was detected.

[4] = test system: GBS 6313; assay: Competitive inhibition of 125I-labelled fibrinogen binding to GBS; parameters: species or system Streptococcus agalactiae; settings: increasing concentrations of purified fusion protein
Description: FbsA-9 differs from FbsA-19 in that it contains only 9 repeats in its repeat domain. The binding assay was performed with ^125I-labelled fibrinogen in the presence of different concentrations of each fusion protein. Each experiment was performed at least in triplicate.
Each experiment was performed at least in triplicate.
Purified human fibrinogen was radiolabelled with ^125I, using the chloramin T method (Hunter and Greenwood, 1962). Binding of labelled fibrinogen to GBS was performed essentially as described by Chhatwal et al. (Chhatwal, Muller, and Blobel, 1983). Briefly, overnight cultures of GBS were pelleted by centrifugation, washed twice with phosphate-buffered saline supplemented with 0.02% Tween 20 (PBST) and adjusted photometrically to a transmission of 10% at 600 nm. A total of 0.2 ml of the bacterial suspension was added to 20 μl of ^125I-labelled fibrinogen containing 23 ng of fibrinogen. After incubation for 1 h at room temperature, the streptococci were sedimented by centrifugation and washed with 1 ml of PBST. The radioactivity of the pellet was finally measured in a gamma counter (Packard Instruments). The amount of bacterial-bound fibrinogen was calculated as the percentage of total radiolabelled fibrinogen added to the bacteria. In inhibition experiments, the binding of 23 ng of radiolabelled fibrinogen to 0.2 ml of GBS (T=10%) was determined in the presence of various amounts of FbsA fusion proteins, Bsp fusion protein or synthetic peptides. Each experiment was repeated at least three times in triplicate.

[5] = test system: A549 cells; assay: Interaction of protein-coated latex beads with A549 cells (scanning electron microscopy); format: cell-based, human
Description: BSA-coated latex beads were used as a control.
Latex beads were either coated with BSA (A) or FbsA fusion protein (B-D) and the interaction of the coated beads with the lung epithelial cell line A549 was analyzed by scanning electron microscopy.
Approximately […] latex beads (3 μm diameter, Sigma) were washed tree times in PBS and then coated with 300 μg of fusion protein or BSA in 500 μl PBS overnight at 4° C. Coated beads were washed once in PBS and then blocked with 200 μl of 10 mg/ml BSA in PBS for 1 h at room temperature. Beads were washed twice in PBS and once in RPMI+10% FCS and then resupended in 1 ml of RPMI+10% FCS. 300 μl of beads were added to approximately 4×10^5 A549 cells in 24-well plates. The cells were incubated for 1 h at 37° C. (5% CO2), washed five times with PBS and fixed in a solution containing 3% glutaraldehyde and 5% formaldehyde in cacodylate bluffer for 45 min on ice. The samples were washed with cacodylate buffer, dehydrated in a graded series of acetone and subjected to critical point drying with CO2. Samples were then coated with a 10 nm thick gold film and examined by scanning electron microscopy as described previously (Reinscheid et al., 2001a).
Approximately 1×10^9 latex beads (3 μm diameter, Sigma) were washed three times in 25 mM 2-N-morpholinoethanesulfonic acid (MES), pH 6.8. One half was resuspended in 1.0 ml MES buffer containing 500 μg/ml FbsA fusion protein and the remaining half was resuspended in 1.0 ml MES buffer. The beads were incubated overnight at 4° C. with end-over-end rotation. After pelleting of the beads by centrifugation, the amount of remaining protein in the supernatant was determined with a Bradford protein assay kit (BioRad). The beads were washed once with MES buffer and blocked for 1 h with 10 mg/ml BSA in MES buffer at room temperature. The beads were washed twice with MES buffer, once with RPMI+10% FCS, and resuspended in RPMI+10% FCS. Confluent A549 cells in 24-well plates were inoculated with 2×10^8 beads per well in a total volume of 1.0 ml. The bead monolayer mixtures were incubated for 2 h at 37° C. in a 5% CO2 atmosphere. Cells were washed five times with PBS and fixed with 3% paraformaldehyde and 4% glutaraldehyde in […] cacodylate buffer for scanning electron microscopy. Scanning electron microscopy was performed with a Zeiss DSM 962 microscope.

T1 sequence (P02675 31-491): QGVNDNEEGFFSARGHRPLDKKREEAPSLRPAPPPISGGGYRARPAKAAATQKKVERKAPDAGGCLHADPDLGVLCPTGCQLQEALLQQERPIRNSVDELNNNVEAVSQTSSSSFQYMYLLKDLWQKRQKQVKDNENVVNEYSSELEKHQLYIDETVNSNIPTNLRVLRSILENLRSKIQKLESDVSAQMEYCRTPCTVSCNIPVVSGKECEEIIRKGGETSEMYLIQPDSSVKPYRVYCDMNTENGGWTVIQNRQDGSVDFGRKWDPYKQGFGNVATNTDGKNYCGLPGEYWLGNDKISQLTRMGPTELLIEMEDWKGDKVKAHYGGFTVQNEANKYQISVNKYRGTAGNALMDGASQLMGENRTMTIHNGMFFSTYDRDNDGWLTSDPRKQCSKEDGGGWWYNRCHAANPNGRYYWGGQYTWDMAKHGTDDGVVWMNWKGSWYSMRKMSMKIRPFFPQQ
T1 sequence (P02679 27-433): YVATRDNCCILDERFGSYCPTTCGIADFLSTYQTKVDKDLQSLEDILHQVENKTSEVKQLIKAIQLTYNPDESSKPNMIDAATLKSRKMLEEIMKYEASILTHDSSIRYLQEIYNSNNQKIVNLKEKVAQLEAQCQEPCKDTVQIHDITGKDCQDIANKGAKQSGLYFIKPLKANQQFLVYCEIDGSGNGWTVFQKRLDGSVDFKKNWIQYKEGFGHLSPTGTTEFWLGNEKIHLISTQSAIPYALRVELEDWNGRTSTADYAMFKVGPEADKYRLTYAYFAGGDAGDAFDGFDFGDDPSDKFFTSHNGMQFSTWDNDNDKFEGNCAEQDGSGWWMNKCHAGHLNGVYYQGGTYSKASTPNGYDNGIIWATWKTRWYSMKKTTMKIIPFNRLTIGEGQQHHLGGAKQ
T1 sequence (P02671 20-629): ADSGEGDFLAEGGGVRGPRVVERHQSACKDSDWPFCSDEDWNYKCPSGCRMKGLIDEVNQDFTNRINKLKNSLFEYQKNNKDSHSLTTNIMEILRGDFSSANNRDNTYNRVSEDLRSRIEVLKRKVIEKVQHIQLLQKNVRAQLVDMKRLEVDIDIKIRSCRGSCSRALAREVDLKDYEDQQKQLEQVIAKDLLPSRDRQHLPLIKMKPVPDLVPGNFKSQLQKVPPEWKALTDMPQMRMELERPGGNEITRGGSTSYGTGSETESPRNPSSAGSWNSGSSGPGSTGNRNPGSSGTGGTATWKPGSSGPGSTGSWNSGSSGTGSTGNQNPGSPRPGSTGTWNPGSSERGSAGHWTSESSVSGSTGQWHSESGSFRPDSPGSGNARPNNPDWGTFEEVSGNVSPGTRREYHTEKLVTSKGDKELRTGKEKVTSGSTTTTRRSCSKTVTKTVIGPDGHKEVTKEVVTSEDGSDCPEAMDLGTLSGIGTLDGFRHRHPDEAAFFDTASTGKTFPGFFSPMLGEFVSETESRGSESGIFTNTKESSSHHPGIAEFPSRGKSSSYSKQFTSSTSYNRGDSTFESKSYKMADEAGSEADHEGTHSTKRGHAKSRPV

| Molecule | reactivity of biotinylated peptides with IgA and IgG antibodies of patient sera [1] | adherence of S. agalactiae 6313 to A549 cells after pre-treatment of the cells [2] | invasion of A549 cells by S. agalactiae 6313 after pre-treatment of the cells [2] | fibrinogen binding in Western blot [3] | inhibition of binding of 125I-labelled fibrinogen to GBS 6313 [4] | binding of protein-coated latex beads to A549 cells [5] | internalization of protein-coated latex beads into A549 cells [5] |
| --- | --- | --- | --- | --- | --- | --- | --- |
| GNVLERAQRDAENRSQ ({Biotin-Ahx}-GNVLERAQRDAENRSQ-NH2; SMILES CC(C)C[C@H](NC(=O)[C@@H](NC(=O)[C@H](CC(N)=O)NC(=O)CNC(=O)CCCCCNC(=O)CCCC[C@@H]1SC[C@@H]2NC(=O)N[C@@H]21)C(C)C)C(=O)N[C@@H](CCC(=O)O)C(=O)N[C@@H](CCCNC(=N)N)C(=O)N[C@@H](C)C(=O)N[C@@H](CCC(N)=O)C(=O)N[C@@H](CCCNC(=N)N)C(=O)N[C@@H](CC(=O)O)C(=O)N[C@@H](C)C(=O)N[C@@H](CCC(=O)O)C(=O)N[C@@H](CC(N)=O)C(=O)N[C@@H](CCCNC(=N)N)C(=O)N[C@@H](CO)C(=O)N[C@@H](CCC(N)=O)C(N)=O) [peptide 5] | less well recognized by all sera | – | – | – | – | – | – |
| GNVLERRQRDAENRSQ ({Biotin-Ahx}-GNVLERRQRDAENRSQ-NH2; SMILES CC(C)C[C@H](NC(=O)[C@@H](NC(=O)[C@H](CC(N)=O)NC(=O)CNC(=O)CCCCCNC(=O)CCCC[C@@H]1SC[C@@H]2NC(=O)N[C@@H]21)C(C)C)C(=O)N[C@@H](CCC(=O)O)C(=O)N[C@@H](CCCNC(=N)N)C(=O)N[C@@H](CCCNC(=N)N)C(=O)N[C@@H](CCC(N)=O)C(=O)N[C@@H](CCCNC(=N)N)C(=O)N[C@@H](CC(=O)O)C(=O)N[C@@H](C)C(=O)N[C@@H](CCC(=O)O)C(=O)N[C@@H](CC(N)=O)C(=O)N[C@@H](CCCNC(=N)N)C(=O)N[C@@H](CO)C(=O)N[C@@H](CCC(N)=O)C(N)=O; listed as Streptococcus agalactiae) [wild type peptide] | less well recognized by all sera | – | – | – | – | – | – |
| FbsA-19: hexahistidyl-tagged FbsA protein from S. agalactiae 6313 with 19 repeats, devoid of signal peptide and membrane-spanning region (protein, left off: small tags and cut ends, hexahistidyl-tagged FbsA protein from S. agalactiae 6313 with 19 repeats, devoid of signal peptide and membrane-spanning region) MDSVGNQSQGNVLERRQRDAENRSQGNVLERRQRDVENKSQGNVLERRQRDAENKSQGNVLERRQRDAENRSQGNVLERRQRDAENRSQGNVLERRQRDAENRSQGNVLERRQRDAENRSQGNVLERRQRDAENRSQGNVLERRQRDVENKSQGNVLERRQRDAENKSQGNVLERRQRDAENRSQGNVLERRQRDAENRSQGNVLERRQRDAENRSQGNVLERRQRDAENRSQGNVLERRQRDAENRSQGNVLERRQRDAENRSQGNVLERRQRDAENRSQGNVLERRQRDAENRSQGNVLERRQRDAENKSQVGQLIGKNPLLSKSIISRENNHSSQGDSNKQSFSKKVSQVTNVANRPMLTNNSRTISVINKLPKTGDDQNV | – | substantially inhibited | substantially inhibited | binding to human fibrinogen | substantially inhibited | in high numbers | observed rather rarely |
